Patent KR20180129514A (dated 2018)

Biological target: T1, mCherry H-RAS G12V (NIH3T3 세포주에서 발현) (UniProt P01112 1-186)
T1 construct: whole, on cells; Intracellular, at the inner face of the cell membrane; also called 세포내 활성화된 H-RAS G12V 돌연변이; 활성화된 RAS; not shown: mCherry red fluorescent protein
Experiment: confocal microscopy, overlap in NIH3T3 cells expressing mCherry H-RAS G12V

B1: 세포질 침투 항체 TMab4 (antibody, V domains shown)
VH: EVQLVESGGGLVQPGGSLRLSCAASGYTFTSYVMHWVRQAPGKGLEWVSAINPYNDGNYYADSVKGRFTISRDNSRKTLYLQMNSLRAEDTAVYYCARGAYKRGYAMDYWGQGTTVTVSS
VL: DLVMTQSPSSLSASVGDRVTITCKSSQSLFNSRTRKNYLAWYQQKPGKAPKLLIYWASTRESGVPSRFSGSGSGTDFTLTISSLQPEDFATYYCQQYYYHMYTFGQGTKVEIKR
notes: Full IgG format (CH1-hinge-CH2-CH3 and CL, detected with anti-human Fc); also called cytotransmab; CT
B1: no binding (tested: 2 μM).
